This assay has as its target T1, human iRhom1, endogenously expressed (human, UniProt Q96CC6 1-855).
T1 construct: also called iRhom1 on RH-30 cells
T1 sequence: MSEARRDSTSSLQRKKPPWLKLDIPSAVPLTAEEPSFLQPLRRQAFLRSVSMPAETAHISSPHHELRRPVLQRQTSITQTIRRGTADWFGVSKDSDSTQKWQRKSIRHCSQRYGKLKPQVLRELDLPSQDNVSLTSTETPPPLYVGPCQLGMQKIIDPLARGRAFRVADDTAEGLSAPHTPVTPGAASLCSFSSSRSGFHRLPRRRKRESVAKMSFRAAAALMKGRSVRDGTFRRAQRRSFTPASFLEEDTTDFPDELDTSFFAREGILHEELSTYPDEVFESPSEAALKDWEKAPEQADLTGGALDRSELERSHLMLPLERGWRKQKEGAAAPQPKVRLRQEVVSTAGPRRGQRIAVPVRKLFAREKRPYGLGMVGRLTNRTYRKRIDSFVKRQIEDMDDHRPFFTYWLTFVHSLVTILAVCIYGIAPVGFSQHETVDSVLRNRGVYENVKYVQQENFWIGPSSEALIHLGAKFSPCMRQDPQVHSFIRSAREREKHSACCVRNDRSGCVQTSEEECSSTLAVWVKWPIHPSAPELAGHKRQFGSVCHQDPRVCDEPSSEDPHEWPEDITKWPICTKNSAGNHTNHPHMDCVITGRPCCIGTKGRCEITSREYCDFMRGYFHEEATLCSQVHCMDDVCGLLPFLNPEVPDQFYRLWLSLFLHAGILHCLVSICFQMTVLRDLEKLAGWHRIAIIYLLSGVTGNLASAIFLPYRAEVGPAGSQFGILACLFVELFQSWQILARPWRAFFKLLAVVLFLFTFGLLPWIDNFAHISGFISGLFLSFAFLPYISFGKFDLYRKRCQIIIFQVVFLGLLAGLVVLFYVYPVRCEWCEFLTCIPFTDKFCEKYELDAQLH
Briefly: FACS, RH-30 cells; via representative antibody 16. The procedure:
In this study, binding specificity analyses of the hybridoma supernatant leading to the antibody 16 of the invention as a representative example of antibodies 3, 16, 22 and 42 of the invention as well as of the antibody 16 of the invention as a representative example of antibodies 16, 22 and 42 of the invention in cell lines endogenously expressing iRhom2 were performed. The studies were conducted on RPMI-8226 cells, a human B lymphocytic cell line endogenously expressing iRhom2 but being endogenously negative for iRhom1, on THP-1 cells, a human monocytic cell line endogenously expressing both iRhom2 and iRhom1 and on RH-30 cells, a human […] cell line endogenously negative for iRhom2 but endogenously expressing iRhom1.
In brief, human RPMI-8226 cells (Deutsche Sammlung von Mikroorganismen und Zellkulturen, Germany), THP-1 cells (American Type Culture Collection, USA) and RH-30 cells (Deutsche Sammlung von Mikroorganismen und Zellkulturen, Germany) were harvested with 10 mM EDTA in PBS, washed and resuspended in FACS buffer (PBS, 3% FBS, 0.05% sodium azide), and seeded in Nunc U-bottom 96-well plates (Thermo Fisher Scientific, USA) at approximately 2×10⁵ cells per well. […] Finally, cells were resuspended in 150 μl per well of FACS buffer and analyzed using a BD Accuri™ C6 Plus flow cytometer (Becton Dickinson, Germany).
Background: A flow cytometer gives signals particle by particle.

Data on 2 molecules can be found in US20240287172A1 (SCIRHOM, published 2024).

B1: antibody 22 (antibody, V domains shown)
VH: QVTLKESGPGILQPSQTLSLTCSFSGFSLSTFGMGVGWIRQPSGKGLEWLAHIWWDDEKYYNSALKSRLTISKATSKNQVFLKIANVDTADTATYYCARISNYGSNYWYFNVWGTGTTVTVSS
VL: QVVLTQSPALMSASPGEKVTMTCSAGSSVSYMYWYQQKPGSSPRVLIYDTSNLASGVPARFTGSGSGTSYSLTISRMEAEDAATYYCQQWNSYPLTFGAGTKLELK
notes: mouse IgG, kappa light chain; also called clone #22; purified antibody 22
For the molecule B1, the binding result is listed as “no binding (tested: 3 µg/ml)”.

B2: antibody 42 (antibody, V domains shown)
VH: QVTLKESGPGILQPSQTLSLTCSLSGFSLSTFGRGVGWIRQPSGKGLEWLAHIWWDDEKYYNPALKSRLTISKDTSKNQVFLRIANVDTADTATYYCARIQNYGSNYWYFDVWGTGTTVTVSS
VL: LIVLTQSPAIMSASPGEKVTMTCGATSRISYMFWYQQKPGSSPRVLIYDTSNLASGVPVRFSGSGSGTSYSLTISRVEAEDVATYYCQQWNSYPLTFGAGTKLELK
notes: mouse IgG, kappa light chain; also called clone #42; purified antibody 42
In the case of B2, the binding result was “no binding (tested: 3 µg/ml)”.
